Data as given in patent publication US20200270588A1, “GLUCOSYL TRANSFERASE POLYPEPTIDES AND METHODS OF USE” (Syngenta Participations AG, priority 2017, published 2020).

Assay: UDP luminescence plate assay of E. coli extracts, saturation mutants of SEQ ID NO: 1, herbicide V
Type: biochemical, Zea mays
Settings: improvement factor relative to w/t bx9 = 1.0, rounded to nearest 0.5; extract activity basis; compound V
Procedure: Competent BL21 (DE3) cells are transformed as in the foregoing examples and, following seed culturing, grown and autoinduced in plates in a 0.5-1 ml volume of autoinduction medium containing 50 ug/ml kanamycin. Plates are incubated at 37° C. and shaken at 900 rpm. Growth is monitored by taking 20 ul aliquots, diluting 10 fold into flat-bottomed 96 well microtiter plates and reading OD600n at t=0, 1, 2, 2½ and 3 hours if necessary. At a (corrected) OD600 nm˜0.2, plates are transferred to 20° C. and shaken overnight at 900 rpm in a Jencons VWR plate incubator. After ˜18-20 h the final OD600 readings are recorded and the plates centrifuged at 4600 rpm (bench top centrifuge) for 10 min at 4° C. The supernatant is discarded and the pellets then washed with 0.25 ml PBS by repeat centrifugation and removal of supernatant before freezing cell pellets at −80° C. To prepare extracts, plates are allowed to thaw for 30 min and then pellets are resuspended in 0.25 ml of a suitable lysis buffer (for example—50 mM Tris HCL buffer at pH 8.0, 5% glycerol containing 50 mM NaCl and lysonase) mixed, incubated at room temperature for a sufficient time for lysis to be near complete and then centrifuged to remove cell debris and 100 ul of supernatant extract removed to a 96 well V-shaped well plate and stored on ice prior to assay.
Optionally plate assays are stopped with brief heating to 95 C before returning to ice and addition of UDP-Glo detection reagent followed by incubation at lab temperature. […] In addition a UDP standard curve is run alongside each set of plate tests.
Making use of the ELISA assay it is then possible to calculate a specific activity (e.g. in Relative Luminescence Units (RLU)/min/ug bx protein) based upon the amount of each mutant bx9 polypeptide expressed in each well. […] The specific activity of the various test mutant extracts on the same plate are then expressed as a fraction of the specific activity of the w/t bx9 and thus the ‘improvement factor’ versus the w/t expressed as a decimal where, for example, ‘0.5’ means half the specific activity of the wild type and 2.0 means twice the specific activity of the wild type. However, as will be readily apparent to the skilled man, particularly in cases where the UDP assay signal was low (with poor signal to noise versus the background) and/or the ELISA measurement of bx protein also low such a method is prone to generate spurious high specific activity numbers and uncertain numbers.

| Molecule | Preferred amino acid substitutions and (IF) based on RLU/min/ul | Most Preferred amino acid substitutions and (IF) based on RLU/min/ul |
| --- | --- | --- |
| F210M: bx9 SEQ ID NO:1 mutant (protein, Zea mays) MASSRTGAGAGGRVVVFPFPFQGHFNPVMRLARALHARGLAITVFHSGALDPADYPADYRFVPVTVEADPKLLASEDIAAIVTTLNASCDAPFRARLSALLAAEGRDSVRCVFTDVSWNAVLTASSDLGVPALGMMTASAASLRDYMAYRTLIDKGYLPVKEERKEDPVPELPPYLVKDLLRVDTSDLEEFAELLARTVTAARRASGLIMNTFPLIETDTLAEIHKALSVPVFAVAPLNKLVPTATASLHGVVQADRGCLQWLDTQQPGSVLYVSFGSMAAMDPHEFVELAWGLADSKRPFVWVVRPNLIRGFESGALPDGVEDEVRGRGIVVAWAPQEEVLAHPAVGGFLTHNGWNSTVEAISEGVPMVCCPRHGDQFGNMRYVCDVWKVGTELVGEQLERGQVKAAIDRLFGTKEGEEIKERMKEFKIAAAKGIGIGVDVDETASPRTDLTDLVDLIKSF | M,W(1.0) | – |
| F210W: bx9 SEQ ID NO:1 mutant (protein, Zea mays) MASSRTGAGAGGRVVVFPFPFQGHFNPVMRLARALHARGLAITVFHSGALDPADYPADYRFVPVTVEADPKLLASEDIAAIVTTLNASCDAPFRARLSALLAAEGRDSVRCVFTDVSWNAVLTASSDLGVPALGMMTASAASLRDYMAYRTLIDKGYLPVKEERKEDPVPELPPYLVKDLLRVDTSDLEEFAELLARTVTAARRASGLIWNTFPLIETDTLAEIHKALSVPVFAVAPLNKLVPTATASLHGVVQADRGCLQWLDTQQPGSVLYVSFGSMAAMDPHEFVELAWGLADSKRPFVWVVRPNLIRGFESGALPDGVEDEVRGRGIVVAWAPQEEVLAHPAVGGFLTHNGWNSTVEAISEGVPMVCCPRHGDQFGNMRYVCDVWKVGTELVGEQLERGQVKAAIDRLFGTKEGEEIKERMKEFKIAAAKGIGIGVDVDETASPRTDLTDLVDLIKSF | M,W(1.0) | – |
| T220G: bx9 SEQ ID NO:1 mutant (protein, Zea mays) MASSRTGAGAGGRVVVFPFPFQGHFNPVMRLARALHARGLAITVFHSGALDPADYPADYRFVPVTVEADPKLLASEDIAAIVTTLNASCDAPFRARLSALLAAEGRDSVRCVFTDVSWNAVLTASSDLGVPALGMMTASAASLRDYMAYRTLIDKGYLPVKEERKEDPVPELPPYLVKDLLRVDTSDLEEFAELLARTVTAARRASGLIFNTFPLIETDGLAEIHKALSVPVFAVAPLNKLVPTATASLHGVVQADRGCLQWLDTQQPGSVLYVSFGSMAAMDPHEFVELAWGLADSKRPFVWVVRPNLIRGFESGALPDGVEDEVRGRGIVVAWAPQEEVLAHPAVGGFLTHNGWNSTVEAISEGVPMVCCPRHGDQFGNMRYVCDVWKVGTELVGEQLERGQVKAAIDRLFGTKEGEEIKERMKEFKIAAAKGIGIGVDVDETASPRTDLTDLVDLIKSF | G,Q,D,V(1.0) | – |
| T220Q: bx9 SEQ ID NO:1 mutant (protein, Zea mays) MASSRTGAGAGGRVVVFPFPFQGHFNPVMRLARALHARGLAITVFHSGALDPADYPADYRFVPVTVEADPKLLASEDIAAIVTTLNASCDAPFRARLSALLAAEGRDSVRCVFTDVSWNAVLTASSDLGVPALGMMTASAASLRDYMAYRTLIDKGYLPVKEERKEDPVPELPPYLVKDLLRVDTSDLEEFAELLARTVTAARRASGLIFNTFPLIETDQLAEIHKALSVPVFAVAPLNKLVPTATASLHGVVQADRGCLQWLDTQQPGSVLYVSFGSMAAMDPHEFVELAWGLADSKRPFVWVVRPNLIRGFESGALPDGVEDEVRGRGIVVAWAPQEEVLAHPAVGGFLTHNGWNSTVEAISEGVPMVCCPRHGDQFGNMRYVCDVWKVGTELVGEQLERGQVKAAIDRLFGTKEGEEIKERMKEFKIAAAKGIGIGVDVDETASPRTDLTDLVDLIKSF | G,Q,D,V(1.0) | – |
| T220D: bx9 SEQ ID NO:1 mutant (protein, Zea mays) MASSRTGAGAGGRVVVFPFPFQGHFNPVMRLARALHARGLAITVFHSGALDPADYPADYRFVPVTVEADPKLLASEDIAAIVTTLNASCDAPFRARLSALLAAEGRDSVRCVFTDVSWNAVLTASSDLGVPALGMMTASAASLRDYMAYRTLIDKGYLPVKEERKEDPVPELPPYLVKDLLRVDTSDLEEFAELLARTVTAARRASGLIFNTFPLIETDDLAEIHKALSVPVFAVAPLNKLVPTATASLHGVVQADRGCLQWLDTQQPGSVLYVSFGSMAAMDPHEFVELAWGLADSKRPFVWVVRPNLIRGFESGALPDGVEDEVRGRGIVVAWAPQEEVLAHPAVGGFLTHNGWNSTVEAISEGVPMVCCPRHGDQFGNMRYVCDVWKVGTELVGEQLERGQVKAAIDRLFGTKEGEEIKERMKEFKIAAAKGIGIGVDVDETASPRTDLTDLVDLIKSF | G,Q,D,V(1.0) | – |
| T220V: bx9 SEQ ID NO:1 mutant (protein, Zea mays) MASSRTGAGAGGRVVVFPFPFQGHFNPVMRLARALHARGLAITVFHSGALDPADYPADYRFVPVTVEADPKLLASEDIAAIVTTLNASCDAPFRARLSALLAAEGRDSVRCVFTDVSWNAVLTASSDLGVPALGMMTASAASLRDYMAYRTLIDKGYLPVKEERKEDPVPELPPYLVKDLLRVDTSDLEEFAELLARTVTAARRASGLIFNTFPLIETDVLAEIHKALSVPVFAVAPLNKLVPTATASLHGVVQADRGCLQWLDTQQPGSVLYVSFGSMAAMDPHEFVELAWGLADSKRPFVWVVRPNLIRGFESGALPDGVEDEVRGRGIVVAWAPQEEVLAHPAVGGFLTHNGWNSTVEAISEGVPMVCCPRHGDQFGNMRYVCDVWKVGTELVGEQLERGQVKAAIDRLFGTKEGEEIKERMKEFKIAAAKGIGIGVDVDETASPRTDLTDLVDLIKSF | G,Q,D,V(1.0) | – |
| T220S: bx9 SEQ ID NO:1 mutant (protein, Zea mays) MASSRTGAGAGGRVVVFPFPFQGHFNPVMRLARALHARGLAITVFHSGALDPADYPADYRFVPVTVEADPKLLASEDIAAIVTTLNASCDAPFRARLSALLAAEGRDSVRCVFTDVSWNAVLTASSDLGVPALGMMTASAASLRDYMAYRTLIDKGYLPVKEERKEDPVPELPPYLVKDLLRVDTSDLEEFAELLARTVTAARRASGLIFNTFPLIETDSLAEIHKALSVPVFAVAPLNKLVPTATASLHGVVQADRGCLQWLDTQQPGSVLYVSFGSMAAMDPHEFVELAWGLADSKRPFVWVVRPNLIRGFESGALPDGVEDEVRGRGIVVAWAPQEEVLAHPAVGGFLTHNGWNSTVEAISEGVPMVCCPRHGDQFGNMRYVCDVWKVGTELVGEQLERGQVKAAIDRLFGTKEGEEIKERMKEFKIAAAKGIGIGVDVDETASPRTDLTDLVDLIKSF | – | S,R(2.5) |
| T220R: bx9 SEQ ID NO:1 mutant (protein, Zea mays) MASSRTGAGAGGRVVVFPFPFQGHFNPVMRLARALHARGLAITVFHSGALDPADYPADYRFVPVTVEADPKLLASEDIAAIVTTLNASCDAPFRARLSALLAAEGRDSVRCVFTDVSWNAVLTASSDLGVPALGMMTASAASLRDYMAYRTLIDKGYLPVKEERKEDPVPELPPYLVKDLLRVDTSDLEEFAELLARTVTAARRASGLIFNTFPLIETDRLAEIHKALSVPVFAVAPLNKLVPTATASLHGVVQADRGCLQWLDTQQPGSVLYVSFGSMAAMDPHEFVELAWGLADSKRPFVWVVRPNLIRGFESGALPDGVEDEVRGRGIVVAWAPQEEVLAHPAVGGFLTHNGWNSTVEAISEGVPMVCCPRHGDQFGNMRYVCDVWKVGTELVGEQLERGQVKAAIDRLFGTKEGEEIKERMKEFKIAAAKGIGIGVDVDETASPRTDLTDLVDLIKSF | – | S,R(2.5) |
| T220C: bx9 SEQ ID NO:1 mutant (protein, Zea mays) MASSRTGAGAGGRVVVFPFPFQGHFNPVMRLARALHARGLAITVFHSGALDPADYPADYRFVPVTVEADPKLLASEDIAAIVTTLNASCDAPFRARLSALLAAEGRDSVRCVFTDVSWNAVLTASSDLGVPALGMMTASAASLRDYMAYRTLIDKGYLPVKEERKEDPVPELPPYLVKDLLRVDTSDLEEFAELLARTVTAARRASGLIFNTFPLIETDCLAEIHKALSVPVFAVAPLNKLVPTATASLHGVVQADRGCLQWLDTQQPGSVLYVSFGSMAAMDPHEFVELAWGLADSKRPFVWVVRPNLIRGFESGALPDGVEDEVRGRGIVVAWAPQEEVLAHPAVGGFLTHNGWNSTVEAISEGVPMVCCPRHGDQFGNMRYVCDVWKVGTELVGEQLERGQVKAAIDRLFGTKEGEEIKERMKEFKIAAAKGIGIGVDVDETASPRTDLTDLVDLIKSF | C,A,N,E,L,I,M(1.5) | – |
